{
  "source": "patent US20080145840A1",
  "key": {"C[C@H](N)C(=O)O": {"test_system": "C[C@H](N)C(=O)O", "assay": "purified protein, by the assay type"}, "[1]": {"test_system": "Nc1ncnc2c1ncn2[C@@H]1O[C@H](COP(=O)(O)OP(=O)(O)OP(=O)(O)O)[C@@H](O)[C@H]1O", "assay": "purified protein, by the assay type"}},
  "data": [
    {"substance": "E. coli MurC (Escherichia coli K-12)", "values": [
      {"measurement": "Km", "setting": "C[C@H](N)C(=O)O; other: ITC, pH 8.0", "result": 44, "unit": "µM"},
      {"measurement": "Km", "setting": "C[C@H](N)C(=O)O; other: Phosphate detection", "result": 56, "unit": "µM"},
      {"measurement": "Km", "setting": "[1]; other: ITC, pH 8.0", "result": 61, "unit": "µM"},
      {"measurement": "Km", "setting": "[1]; other: Phosphate detection", "result": 101, "unit": "µM"}
    ]}
  ]
}
